# According to the supplement of paper PMC10567573:
# ± gives the standard deviation.
# Experiment: protein stability index of a GFP-peptide fusion (GPS, HEK-293T) (PSI 1-6); higher = more stable
# [1] = treatment: DMSO, c terminus: a fixed tail appended
# [2] = treatment: MLN4924 1 uM, 8 h, c terminus: a fixed tail appended
# [3] = treatment: DMSO, c terminus: native
# [4] = treatment: MLN4924 1 uM, 8 h, c terminus: native
# 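Further: 24-mer peptide tiles fused after GFP, lentivirally expressed, FACS-sorted into six equal bins by GFP/DsRed ratio, decoded by Illumina sequencing, PSI is the read-weighted mean bin number.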
Sequence,protein stability index [1],protein stability index [2],protein stability index [3],protein stability index [4]
DSGVQACFNRSREYQLNDSAAYYL [GNAI1],2.8 ± 0.15,2.75 ± 0.17,,
SKKLRAILPKQSRKSMLDAGPDSW [LCOR],2.71 ± 0.06,3.03 ± 0.44,,
SPSSDLDTDAEGDDFELLDQSELS [RETREG3],5.56 ± 0.13,5.38 ± 0.12,,
RQVNIRTANCTTANQNCVNKSKLL [KCNA1],3.51 ± 0.12,3.48 ± 0.28,,
WRDSKGKDKEYAEIIRKQVSATKA [UBE2R2],3.9 ± 0.34,4.07 ± 0.46,,
KYDYLMTLHGVVNESTVCLMSYER [TENT5D],2.38 ± 0.34,2.36 ± 0.22,,
EEVDVTSVDPIAAFCSSDEELEDS [RBBP5],5.55 ± 0.2,5.62 ± 0.16,,
FTDYGLAALAVNTSILSRLPPEAL [RNF208],2.29 ± 0.25,2.13 ± 0.31,,
ERPRMNANSLLASPTGLSPYLRFG [CRY1],2.89 ± 0.21,2.98 ± 0.22,,
LPCSSYIDSYDPSTGEVYCRVPNS [ALDH8A1],2.65 ± 0.22,2.88 ± 0.24,,
QLKESKSKIDALSSEKLNLQKDLE [CEP70],5.03 ± 0.1,5.16 ± 0.13,,
KIGFEIGIENEEDTSKQKKMETMY [ZNF449],4.08 ± 0.29,4.07 ± 0.22,,
NFEKLRLSLQDQVDTLTFQSQSLR [MTUS2],3.01 ± 0.22,3.14 ± 0.37,,
SALATQYMHCVNHAKQSMLEKGG [CHCHD3],,,2.81 ± 0.55,3.02 ± 0.34
MASRAGPRAAGTDGSDFQHRERVA [JAGN1],4.67 ± 0.31,4.7 ± 0.13,,
LKHWRRAMELRHQGGEYLPKPEPP [FEM1A],3.08 ± 0.53,3.16 ± 0.41,,
AVGGRLRLVPGGQRPADVPEPGRA [HAGHL],4.22 ± 0.38,4.16 ± 0.43,,
LNGENSDIKICALGEEWSLHKIYL [GMCL1],2.14 ± 0.32,1.94 ± 0.41,,
SMLVAGNDRVQTIITQLEDSRRVT [TRIM63],3.81 ± 0.077,3.72 ± 0.12,,
DFLEEVEEIVFNLTNNVDLDNTKK [MNAT1],3.03 ± 0.38,3.18 ± 0.26,,
PPRPPPRGTPPRRHSFRKHLYLLR [N4BP2L1],3.32 ± 0.35,3.56 ± 0.23,,
DGSTYKIELEGISVMVMREILDYI [GAN],2.3 ± 0.39,1.93 ± 0.15,,
AKVKPFDPKITCKQECLITTFQDV [TPH1],2.75 ± 0.52,2.42 ± 0.52,,

Sequence,protein stability index [1],protein stability index [2],protein stability index [3],protein stability index [4]
ATNSSWVVVFKALVTTHHLMVHGN [SNAP91],3.43 ± 0.31,3.4 ± 0.28,,
CFQDFKEEKPQENKTWREQYLRLP [ELOA2],3.15 ± 0.35,3.25 ± 0.41,,
LFKAHFRGEVLPEEITEESLEESV [INTS3],4.9 ± 0.091,4.962 ± 0.037,,
FTGNSKLELNFKAGDVIFLLSRIN [NCF4],2.67 ± 0.76,3.16 ± 1.1,,
ASSASAFLTAPLLEFLLALYFLFA [CMTM3],2.34 ± 0.79,2.63 ± 0.88,,
PRSPECRMIPGQPPASARRLSVPR [IRX6],4.47 ± 0.24,4.52 ± 0.12,,
NWVIPAISAVAVALMYRLYMAED [CYB5A],,,3.92 ± 0.12,4.02 ± 0.19
EMSEKRGPTSSNPRKRHREDSDVE [MLH1],5.49 ± 0.44,5.49 ± 0.14,,
PPGPDRLPSNLVQYYDDEKKTWKI [KLHL14],4.87 ± 0.082,4.7 ± 0.33,,
LTCDSAQKCHSIGETDEVTKTEDR [ZSCAN9],5.27 ± 0.34,5.59 ± 0.13,,
AKIEVEKLKAIRLRHDLPEYNSL [RAD54B],,,3.62 ± 0.21,3.81 ± 0.2
QKLNPGFDLAKGNAGKVNLPKELP [PLAGL1],4.27 ± 0.14,4.15 ± 0.3,,
FRNCGACVTLMQGHEGSVSSCHFA [WDR88],2.85 ± 0.62,2.59 ± 0.37,,
PQALPEPMQESKAEGNNQAPGEEE [CHGA],5.54 ± 0.24,5.5 ± 0.35,,
QFVEGVRMEEIVEGCTGALHILAR [CTNNB1],3.12 ± 0.52,3.05 ± 0.64,,
TKPSKSAALHIDLCKATSPADALQ [INTS4],3.91 ± 0.1,3.84 ± 0.29,,
GRYPLIQTLRQELSLPYLPSGTPE [CHIT1],3.51 ± 0.26,3.47 ± 0.27,,
GKGEGPIWLDNLHCTGNEATLAAC [LOXL2],3.43 ± 0.23,3.52 ± 0.57,,
KLFAHSSDLLSEFKKHDADKVGLI [PPEF2],2.63 ± 0.3,2.68 ± 0.38,,
SWQDLKDHMREAGDVCYADVYRDG [SRSF1],3.96 ± 0.68,4.21 ± 0.12,,
MDPGWGQRDVGWAALLILFAASLL [C2CD2L],2.34 ± 0.24,2.26 ± 0.31,,
RFFACPSKATFSRNIMNLIDIVAI [KCNA3],2.8 ± 0.61,2.87 ± 0.46,,
EPHPRPLLQRELMVPGTRHSAVLR [TNXB],3.93 ± 0.42,4.2 ± 0.59,,

Sequence,protein stability index [1],protein stability index [2],protein stability index [3],protein stability index [4]
RMTGGRPPLPPPDDPATLGPHLGL [DYRK1B],4.2 ± 0.2,4.26 ± 0.18,,
VKSHLLDYVMTTLLFSDKNVNSNL [TRIP13],3.08 ± 0.36,2.79 ± 0.32,,
EQPFIPVEVLVDLFLKEGACDELF [PRAME],2.39 ± 0.16,2.39 ± 0.35,,
SNNNGRIKQLRSGGTPIRGALQIE [PTPRD],3.76 ± 0.33,3.85 ± 0.36,,
FNGNYKVDSPKNFNIAGTVVKYRR [ADAMTSL2],3.14 ± 0.23,3.44 ± 0.36,,
DQDLDALMADLVADISEAEQRTIQ [APBB1IP],4.48 ± 0.36,4.56 ± 0.21,,
LSTPKPLVDFCNKPILLHQVEALA [GMPPB],2.54 ± 0.3,2.52 ± 0.41,,
SQAQETTIIASNAEEAEILHSACG [TOR1AIP2],5.26 ± 0.29,5.21 ± 0.27,,
TVKTHLTSLKTKFPAEQYYRFHEH [TSN],2.32 ± 0.25,2.44 ± 0.36,,
NDPSGSEEADFLSAETGSPRLTMH [IRX6],5.16 ± 0.083,5.2 ± 0.057,,
DELDMSPGDPKWLDVIERDLHRQF [TBC1D10A],3.84 ± 0.21,3.8 ± 0.12,,
VITIKSESTFKNTEISFILGQEFD [FABP4],2.23 ± 0.53,2.4 ± 0.078,,
IPMHIDHDRNMDWVSTQLQATCNV [FADS1],3 ± 0.28,3.24 ± 0.27,,
PQLGLDGPGEPDVRDGFSATFEKI [PSD2],4.73 ± 0.18,4.67 ± 0.13,,
VYLHGDDHQDSDEFCRNTLCAPEV [FAF2],4.13 ± 0.22,4.23 ± 0.15,,
HPDDRPKLNKPPETLITTIDSSSS [CYB5A],4.85 ± 0.49,5.04 ± 0.32,,
KFPPEEELQREWLGNREALIQFLE [CPN1],3.69 ± 0.18,3.8 ± 0.18,,
ETVVNRIAAGEVIQRPANAIKEMI [MLH1],3.17 ± 0.17,3.36 ± 0.19,,
EMLGRKCLTLATAVVQLYLALPPG [WAS],3.02 ± 0.3,3.3 ± 0.55,,
GSKARAEGRGPVTPLHLDLTQLHR [PLEKHN1],3.52 ± 0.061,3.835 ± 0.001,,
LGKITFIRNSRPLVKKVEEDEAGG [UFD1],3.99 ± 0.34,3.94 ± 0.25,,
VMFKIGDLGHVTRISSPQVEEGDS [WEE1],3.44 ± 0.23,3.45 ± 0.37,,
KGEFKDEEETVTTKHIHITQATET [CLINT1],5.42 ± 0.059,5.4 ± 0.097,,

Sequence,protein stability index [1],protein stability index [2],protein stability index [3],protein stability index [4]
PQHQAGSDSLLTGMAFFKMREMFF [CNOT7],2.13 ± 0.16,2.15 ± 0.099,,
WTNGSGLALCQRYYHRGHVDPAND [MCOLN1],3.11 ± 0.12,3.12 ± 0.21,,
IAAPHAGANVKPRNSTPPSLARNP [ZC2HC1A],4.35 ± 0.12,4.48 ± 0.25,,
ATNQCTIDKNRRKSCQACRLRKCY [ESR2],3.39 ± 0.25,3.47 ± 0.18,,
LLDGLARRVGILGEELADVGGVLR [SCARA5],2.64 ± 0.2,2.72 ± 0.4,,
YPCVLATEGFTSGRHYWEVEVGDK [TRIM39],2.59 ± 0.62,3.27 ± 0.68,,
RYFYLLENIAWVKSYNICFELEDS [PDS5B],2.75 ± 0.2,2.05 ± 0.61,,
PVLKRSSESMENINSGYETRRKKG [KMT2E],4.87 ± 0.28,4.72 ± 0.29,,
SDPSTIEASNFQMDRKTRFIIHGF [PNLIPRP1],2.42 ± 0.067,2.37 ± 0.26,,
ESEDCKLPSNPCATTNACEKPIGS [KRT33B],5.48 ± 0.097,5.34 ± 0.18,,
AADGETNGSCENSDASSHANAAKH [EHMT1],5.51 ± 0.12,5.35 ± 0.14,,
VRQAFQDQDDRRTWDGRPLTMAAT [GFOD1],3.829 ± 0.031,3.65 ± 0.26,,
TFHHPTYGSCYTVDGVWTAQRPGI [SCNN1D],2.61 ± 0.41,2.61 ± 0.29,,
LLARPGTGEHREFKLDKKYQRPQD [FBF1],3.95 ± 0.41,4.16 ± 0.3,,
SMCEHHLVPFVGKVHIGYLPNKQV [GCH1],2.16 ± 0.38,2.29 ± 0.39,,
RTPRLMPDKESMYYPRVQHYRELL [GDAP1],2.52 ± 0.17,2.61 ± 0.27,,
QVFLDRINRADYCPECYPDNPANR [TOR1AIP2],2.76 ± 0.33,2.9 ± 0.28,,
LQMEMKEDDVSFLMKHKSRKRRLF [TRIM35],3.35 ± 0.35,3.54 ± 0.16,,
YADFGPLNLAMVYRYCCKLNKKLK [CDC14A],2.9 ± 0.58,2.56 ± 0.43,,
ARIRSHSWLESCIVGWRCRVGQWV [GMPPB],2.27 ± 0.3,2.262 ± 0.009,,
